For one substance, minimum positive concentration, Kd and half-life results are on record in patent WO2021212049A2.

Experiment [1] concerns the target Mammalian SARS-CoV2 RBD (residues 331-524) with C-terminal 6XHis Tag (SARS-CoV-2) (UniProt P0DTC2). Put plainly: ELISA on coated antigen, anti-human IgG-HRP.
Experiment [2] has as its target untagged SARS-CoV-2 RBD expressed in E. coli BL21(DE3) and oxidatively refolded (RBDWT) (SARS-CoV-2) (UniProt P0DTC2). Put plainly: BLI, RBD expressed in E. coli, 1:1 Langmuir fit. Background: In BLI a coated tip is dipped into the sample, and binding shifts an interference pattern.
Experiment [3] shares this target. Put plainly: BLI, RBD expressed in E. coli.

In experiment [1], mAb 2B04 (antibody) registered a minimum positive concentration of under 5 µg/mL. In experiment [2], this substance returned a Kd of 1.05 nM. Also, the half-life in experiment [3] amounted to 23.7 min.

As a reminder, the Kd is the free concentration of one partner at which half of the binding sites on the other are occupied at equilibrium, for simple one-to-one binding. Low values mean tighter binding, high ones weaker binding. One may read the half-life as how long it takes for the measured level to halve. Read a high half-life as slow decline.
